Non-standard residues stand in square brackets, D forms with d. No end group written: not given here. pY = N[C@@H](Cc1ccc(OP(=O)(O)O)cc1)C(=O)O; pT = C[C@@H](OP(=O)(O)O)[C@H](N)C(=O)O
How the values were obtained:
[1] = system: polyclonal phospho-JNK antibody NEB #9251; assay: Binding of polyclonal phospho-JNK antibody to TAMRA-labelled peptides (fluorescence polarization); design: species or system rabbit; settings: control
Source text: The polarization values dramatically increase when using the double-phosphorylated peptide substrate P1*^∘ in contrast to mono-phosphorylated labelled peptide P1^∘ (sequence see above).
Measurement of the Binding Affinity (KD) of Antibody NEB #9251:
This polyclonal antibody detects all three isoforms of the SAPK1/JNK proteins only when they are activated by dual phosphorylation at threonine183/tyrosine185. Binding of poly-clonal phospho-JNK antibody (at a dilution of 1:20) from NEB to TAMRA-labelled P1^∘- and P1*^∘ peptides (each 5 nM) was measured by fluorescence polarization.

MKK7 = molecular target: T1, MKK7 (Homo sapiens, UniProt O14733); assay: Determination of Km for ATP (MKK7 phosphorylation, FP read-out); type: biochemical; settings: MKK7 80 nM, P1° 100 μM, RT
T1 construct: purchased Upstate Biotech 14-366
T1 sequence (O14733 1-419): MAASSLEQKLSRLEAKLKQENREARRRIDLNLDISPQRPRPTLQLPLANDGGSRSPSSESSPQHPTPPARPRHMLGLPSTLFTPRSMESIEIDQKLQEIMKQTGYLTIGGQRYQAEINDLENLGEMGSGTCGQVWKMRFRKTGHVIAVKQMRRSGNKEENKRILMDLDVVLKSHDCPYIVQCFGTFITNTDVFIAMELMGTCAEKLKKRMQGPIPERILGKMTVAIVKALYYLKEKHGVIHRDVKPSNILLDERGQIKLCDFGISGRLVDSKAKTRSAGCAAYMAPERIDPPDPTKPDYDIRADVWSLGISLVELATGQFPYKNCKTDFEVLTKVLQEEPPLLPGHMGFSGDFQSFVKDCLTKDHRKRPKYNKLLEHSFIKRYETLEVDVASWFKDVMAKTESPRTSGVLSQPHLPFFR
Experimental: Efficient phosphorylation of P1^∘ peptide is dependent on the optimal ATP concentration. […] From the detected fluorescence polarization signals, the Michaelis-Menten constant (Km), reflecting the half-maximal phosphorylation rate, was determined for ATP.
Determination of Km for ATP (Read-out: Fluorescence Polarization): […]

[2] = molecular target: Anti active SAPK1/JNK-specific polyclonal antibody, New England Biolabs NEB #9251; assay: fluorescence polarization, 200 nM P1*° competing with TAMRA-P1*° (5 nM) for antibody 1:20, 0 h
[3] = molecular target: Anti active SAPK1/JNK-specific polyclonal antibody, New England Biolabs NEB #9251; assay: fluorescence polarization, competition with TAMRA-P1*° (5 nM) for NEB #9251 (1:20) in presence of 100 µM P1° substrate peptide, 20 µM ATP, 10 mM MgCl2
[4] = molecular target: Anti active SAPK1/JNK-specific polyclonal antibody, New England Biolabs NEB #9251; assay: fluorescence correlation spectroscopy, competition with TAMRA-P1*° (5 nM) for the NEB antibody (1:20)
[5] = molecular target: Anti active SAPK1/JNK-specific polyclonal antibody, New England Biolabs NEB #9251; assay: competition with TAMRA-P1*° (5 nM) for the antibody, competitor up to 1 µM (FIG. 3)

Molecule: TAMRA-labelled P1^∘-peptide: TAMRA-labelled mono-phosphorylated P1° peptide, control for antibody binding (KFMMTP[pY]VVTR-NH2; not fully specified (residue 5, N-terminus); also: TAMRA label, site not given here)
- binding of the polyclonal JNK antibody [1]: no binding

Molecule: Nc1ncnc2c1ncn2[C@@H]1O[C@H](COP(=O)(O)OP(=O)(O)OP(=O)(O)O)[C@@H](O)[C@H]1O [ATP]
- Vmax (MKK7): 0.28 mP/min

B1: P1*° peptide, H-Lys-Phe-Met-Met-pThr-Pro-pTyr-Val-Val-Thr-Arg-NH2 (peptide)
peptide: H-KFMM[pT]P[pY]VVTR-NH2
SMILES: CSCC[C@H](NC(=O)[C@H](Cc1ccccc1)NC(=O)[C@@H](N)CCCCN)C(=O)N[C@@H](CCSC)C(=O)N[C@H](C(=O)N1CCC[C@H]1C(=O)N[C@@H](Cc1ccc(OP(=O)(O)O)cc1)C(=O)N[C@H](C(=O)N[C@H](C(=O)N[C@H](C(=O)N[C@@H](CCCNC(=N)N)C(N)=O)[C@@H](C)O)C(C)C)C(C)C)[C@@H](C)OP(=O)(O)O
- fluorescence polarization [2]: 84.5 mP
- IC50 [3]: 35.1 nM
- IC50 [4]: 5 nM

B2: P1* peptide, H-Lys-Phe-Met-Met-pThr-Pro-Tyr-Val-Val-Thr-Arg-NH2 (peptide)
peptide: H-KFMM[pT]PYVVTR-NH2
SMILES: CSCC[C@H](NC(=O)[C@H](Cc1ccccc1)NC(=O)[C@@H](N)CCCCN)C(=O)N[C@@H](CCSC)C(=O)N[C@H](C(=O)N1CCC[C@H]1C(=O)N[C@@H](Cc1ccc(O)cc1)C(=O)N[C@H](C(=O)N[C@H](C(=O)N[C@H](C(=O)N[C@@H](CCCNC(=N)N)C(N)=O)[C@@H](C)O)C(C)C)C(C)C)[C@@H](C)OP(=O)(O)O
- percent of the bound ligand displaced [5]: < 50%

B3: P1° peptide, H-Lys-Phe-Met-Met-Thr-Pro-pTyr-Val-Val-Thr-Arg-NH2 (peptide)
peptide: H-KFMMTP[pY]VVTR-NH2
SMILES: CSCC[C@H](NC(=O)[C@H](Cc1ccccc1)NC(=O)[C@@H](N)CCCCN)C(=O)N[C@@H](CCSC)C(=O)N[C@H](C(=O)N1CCC[C@H]1C(=O)N[C@@H](Cc1ccc(OP(=O)(O)O)cc1)C(=O)N[C@H](C(=O)N[C@H](C(=O)N[C@H](C(=O)N[C@@H](CCCNC(=N)N)C(N)=O)[C@@H](C)O)C(C)C)C(C)C)[C@@H](C)O
- percent of the bound ligand displaced [5]: < 50%

— patent US7049080B2, “Process for detecting serine/threonine kinase activity” (priority 2000, dated 2006)
